Laboratory results taken from patent US7374891B2, “Methods to identify compounds that modulate rage” (TransTech Pharma, Inc., priority 2000, dated 2008).
pKd: −log10 of the molar value. Like-named read-outs stand apart in the source and are kept apart here.

Biological target: T1, S-100b (Homo sapiens, UniProt P04271)
T1 sequence (P04271 2-92 limits assumed): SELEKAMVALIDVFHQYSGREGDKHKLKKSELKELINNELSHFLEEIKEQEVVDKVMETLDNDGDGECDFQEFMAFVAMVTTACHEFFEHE
Assay: Saturation binding of sRAGE to immobilized S-100b (ELISA, Scatchard analysis)
Method: Generally, the protocol for detection of RAGE modulators is as follows. RAGE ligand (e.g. S-100b, β-amyloid, CML) is diluted to 5 μg/ml in buffer A (fixing buffer) (100 mM Na2CO3/NaHCO3, pH 9.8) and 100 μl added to microtiter plate wells and allowed to incubate overnight at 4° C. to allow the ligand to become fixed to the surface of the wells. Wells are then washed 3 times with 400 μl/well buffer C (wash buffer) (20 mM Imidazole, 150 mM NaCl, pH 7.2), with a 5 second soak in buffer C between each wash. Buffer B (blocking buffer) (50 mM Imidazole pH 7.2, 5% BSA, 5 mM CaCl2, 5 mM MgCl2) is then added to the wells and allowed to incubate for 2 hours at 37° C. to block nonspecific protein binding sites. The blocking buffer is then aspirated from the wells, and the plate washed 3 times (400 μl/well) with buffer C, with a 5 second soak in buffer C between each wash. The compound of interest, 25 μl dissolved in 2% DMSO FAC (Final Assay Concentration ) and sRAGE (75 μl) (2.2×10^−4 mg/ml FAC) are then added to each well, and incubated 1 hour at 37° C. Meanwhile, polyclonal antibody or monoclonal antibody for sRAGE (e.g. 3.0×10^−3 mg/ml and 1.9×10^−4 mg/ml FAC, respectively), biotinylated goat F (ab′)2 anti-mouse IgG (e.g. 8.0×10^−4mg/ml FAC) (Biosource International, Camarillo, Calif. (TAGO)), and alkaline phosphatase labeled streptavidin (3.0×10^−3 mg/ml FAC) (ZYMED, San Francisco, Calif.) are added to 5 ml of buffer D (complex buffer) (50 mM Imidazole, pH 7.2; 0.2% BSA, 5 mM CaCl2, 5 mM MgCl2) in a 15 ml conical tube and allowed to incubate 30 minutes at room temperature.
The solution containing sRAGE and the compound of interest is then aspirated from each well, and after 3 washes with wash buffer, with a 5 second soak between each wash, the anti-sRAGE:IgG:streptavidin-alkaline phosphatase complex is added to each well (100 μl complex per well). After 1 hour at room temperature, the solution in each well is aspirated, and the wells washed 3 times, with 5 second soaks between each wash.
The alkaline phosphatase substrate, para-nitrophenyl phosphate (pNPP) (1 mg/ml in 1 M diethanolamine, pH 9.8), is added and the color allowed to develop for 1 hr in the dark. After the addition of 10 μl stop solution per well (0.5 N NaOH; 50% methanol), the OD405 is measured.
In the experiment shown in FIG. 10, wells were coated by incubation with 500 ng/well S-100b overnight, and after washing, sRAGE diluted in buffer D added to the final concentrations shown. […]
The utility of the assay for detecting compounds which antagonize both low and high affinity RAGE binding domains is shown in FIGS. 8-11. […] The amount of sRAGE bound to the immobilized ligand was detected using anti-sRAGE polyclonal or monoclonal antibody (3.0×10^−3 mg/ml and 1.9×10^−4 mg/ml FAC, respectively) and the development system as described in Example 1. Plots were linearized by means of Scatchard analysis and values for Kd and Bmax determined. Statistical analysis of experimental precision was determined by utilizing GraghPad Prisam version 3 software (GraphPad Software, Inc. San Diego, Calif.).
Both low and high affinity binding of sRAGE to S-100b are detected using the assay method of the invention. […] After washing, sRAGE comprising a final concentration ranging from about 0.3 to 10 nM was added to each well, and after 1 hour at 37° C., bound sRAGE was measured by the addition of polyclonal antibody complex. […]

sRAGE: soluble, extracellular portion of RAGE, as defined by the amino acid sequence SEQ ID NO: 2
pKd (S-100b 50 ng/well, sRAGE about 0.3 to 10 nM, FIG. 8, read-out: Kd, high affinity binding component): ~8.22 | pKd (S-100b 100 ng/well, sRAGE about 0.3 to 10 nM, FIG. 9, read-out: Kd, high affinity binding component): ~8.70 | pKd (S-100b 500 ng/well, four separate determinations, FIG. 10, read-out: Kd value): 7.22 | pKd (S-100b 500 and 100 ng/well, sRAGE 24 to 480 nM and 5 to 80 nM, FIGS. 10 and 11, read-out: Kd, low affinity binding site): ~7.22 | pKd (sRAGE 0.3 to 10 nM, FIGS. 8 and 9, read-out: Kd, high affinity binding site): 8.22 to 8.70
